Experimental data reported in article PMC3020944, “Structure-Activity Relationship of Cinnamaldehyde Analogs as Inhibitors of AI-2 Based Quorum Sensing and Their Effect on Virulence of Vibrio spp”.

Biological target: T1, GST-LuxR (Vibrio harveyi, UniProt P21308 1-205)
T1 sequence: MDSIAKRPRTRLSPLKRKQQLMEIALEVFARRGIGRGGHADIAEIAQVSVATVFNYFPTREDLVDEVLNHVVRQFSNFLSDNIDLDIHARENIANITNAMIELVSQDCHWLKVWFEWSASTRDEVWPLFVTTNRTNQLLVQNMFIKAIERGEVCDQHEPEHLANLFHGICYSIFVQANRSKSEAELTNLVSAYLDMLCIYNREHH
Assay: fluorescence anisotropy; no inhibitor; Kd value only in Fig. 2B; 30°C; fluorescence polarisation, excitation 480 nm, emission 535 nm; binding buffer, salt and pH not given (as in ref 12); duplex annealed in NaCl-Tris-EDTA
Settings: protein: recombinant; tags: GST; chain copies: 2; label: 5' fluorescein on strand 1; blunt

B1: V. harveyi consensus LuxR binding sequence (dsDNA)
DNA 1: TATTGATAAATTTATCAATAA
DNA 2: TTATTGATAAATTTATCAATA
binding result: binds
